This is an account of results in publication PMC2910045 (Nucleic Acids Research, 2010).

Read-outs that look alike come from different tables or passages of the source.

The Kd is the constant that tells how readily two partners part at equilibrium. Low values mean a tighter complex, high ones a looser complex. By stoichiometry N is commonly meant the number of molecules, sites or subunits per partner or assembly.

In series [1] the target is T1, SopB FL (Escherichia coli F plasmid, UniProt P62558 1-323).
T1 sequence: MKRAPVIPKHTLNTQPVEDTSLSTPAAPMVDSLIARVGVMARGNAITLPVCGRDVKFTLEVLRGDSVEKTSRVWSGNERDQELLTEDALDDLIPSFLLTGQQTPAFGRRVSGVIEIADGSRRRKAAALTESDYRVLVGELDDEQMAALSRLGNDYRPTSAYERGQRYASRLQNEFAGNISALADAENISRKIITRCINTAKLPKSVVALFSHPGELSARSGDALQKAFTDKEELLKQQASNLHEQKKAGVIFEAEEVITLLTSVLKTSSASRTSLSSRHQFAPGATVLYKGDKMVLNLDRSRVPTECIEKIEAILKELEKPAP
The series can be described thus: fluorescence polarization. In general terms: Polarisation of emitted light reports the rotation of a fluorescent probe.

Series [2] concerns the molecule itself. The series can be described thus: SEC. (Size exclusion chromatography separates by hydrodynamic size, large species first.)
Series [3] concerns the molecule itself. The series can be described thus: SEC. The source holds these as a separate data set.
The next series deals with T2, SopB(155-323) (Escherichia coli F plasmid, UniProt P62558 155-323).
T2 sequence: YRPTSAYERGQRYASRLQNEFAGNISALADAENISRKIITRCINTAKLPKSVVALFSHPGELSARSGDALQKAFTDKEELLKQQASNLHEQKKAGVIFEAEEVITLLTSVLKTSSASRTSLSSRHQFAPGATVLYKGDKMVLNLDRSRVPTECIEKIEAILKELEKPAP
The series can be described thus: X-ray crystallography.

For series [4], the target named is T1, SopB FL. Kind of series: X-ray crystallography.

B1: sopC 43mer (FP) (dsDNA)
DNA 1: GGTCTGATTATTAGTCTGGGACCACGGTCCCACTCGTATCGTC
DNA 2: GACGATACGAGTGGGACCGTGGTCCCAGACTAATAATCAGACC
Consider B1, for which binding in the series with SopB FL [1] was characterised by a dissociation constant (Kd) of 324 ± 43 nM. Turning to LSSRHQFAPGATVLYKGDKMVLNLDRSRVPTECIEKIEAILKELEKPAP (domain or fragment, F plasmid, UniProt P62558 275-323, looked up) [SopB(275–323)], the “stoichiometry N” value in the series “SEC [2]” came out at 2.

B2: sopC 18mer (FP) (dsDNA)
DNA 1: CTGGGACCATGGTCCCAG
DNA 2: CTGGGACCATGGTCCCAG
As for B2, in the series with SopB FL [1], the affinity, expressed as Kd, was 223 ± 44 nM.

B3: SopB(155–272) (domain or fragment, F plasmid, UniProt P62558 155-272, looked up)
chain: YRPTSAYERGQRYASRLQNEFAGNISALADAENISRKIITRCINTAKLPKSVVALFSHPGELSARSGDALQKAFTDKEELLKQQASNLHEQKKAGVIFEAEEVITLLTSVLKTSSASR
On to B3, for which the “stoichiometry N” value in “SEC [3]” came to 2.

B4: sopC 18mer 5-bromouracil (dsDNA)
DNA 1: CTGGGACCATGGTCCCAG
DNA 2: CTGGGACCATGGTCCCAG
modifications: 5-bromouracil substitutions (positions not given)
With B4, the binding result in the series with SopB(155-323) and with SopB FL [4] was “binds” in each case.
